The target in assay [1] is T1, recombinant mouse IL1RAP protein (Sino Biological, Cat #52657-M08H) (mouse, UniProt Q61730 21-359).
T1 construct: Bought protein
T1 sequence (looked up): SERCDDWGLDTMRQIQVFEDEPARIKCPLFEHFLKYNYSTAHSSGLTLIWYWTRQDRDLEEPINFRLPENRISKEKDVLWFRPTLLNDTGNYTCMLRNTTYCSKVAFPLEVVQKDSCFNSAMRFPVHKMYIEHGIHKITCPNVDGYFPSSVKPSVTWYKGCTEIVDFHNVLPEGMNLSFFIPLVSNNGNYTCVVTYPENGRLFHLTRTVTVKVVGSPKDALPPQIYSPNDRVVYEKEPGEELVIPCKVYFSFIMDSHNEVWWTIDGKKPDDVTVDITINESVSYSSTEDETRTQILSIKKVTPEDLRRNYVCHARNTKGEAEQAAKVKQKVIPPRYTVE
The assay can be described thus: cell-free ELISA, mouse IL1RAP coated; data not shown. The essentials: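 Plates coated overnight at 4 °C with recombinant IL1RAP at 1 μg/ml in PBS pH 7.4, then blocked with 1% BSA. Antibodies incubated 1 h at room temperature from 100 nM in seven half-log dilutions. Bound antibody detected with anti-His HRP and chemiluminescence.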

Assay [2] addresses T2, IL1RAP-Fc protein (Sino Biological, Cat #10121-H02H), recombinant human IL1RAP extracellular domain Fc-tagged (human, UniProt Q9NPH3 21-367).
T2 construct: extracellular domain; not shown: Fc tag
T2 sequence (looked up): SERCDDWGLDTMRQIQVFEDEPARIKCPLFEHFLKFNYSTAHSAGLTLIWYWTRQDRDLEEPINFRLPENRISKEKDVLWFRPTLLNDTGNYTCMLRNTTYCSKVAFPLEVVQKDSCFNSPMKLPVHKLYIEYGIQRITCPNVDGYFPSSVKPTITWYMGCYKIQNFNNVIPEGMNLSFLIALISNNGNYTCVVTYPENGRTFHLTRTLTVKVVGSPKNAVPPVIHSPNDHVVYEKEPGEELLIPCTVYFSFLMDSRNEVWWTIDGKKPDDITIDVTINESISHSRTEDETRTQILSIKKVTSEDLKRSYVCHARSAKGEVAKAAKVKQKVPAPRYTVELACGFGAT
Put plainly: cell-free competition ELISA: IL1RAP-Fc coated, mAb titrated, blocks binding of premixed IL1R1-His/IL1β complex. The procedure: High-binding 96-well plates were coated with IL1RAP-Fc protein (Sino Biological, Cat #10121-H02H) at concentration of 4 µg/ml and incubated overnight at 4° C. After 3× washes with 0.05% Tween-20 in PBS, pH 7.5, plates were blocked with 1% BSA in PBS for 1 hour at room temperature. Following, wells were incubated with each antibody at concentration of 50 nM for 1 hour at room temperature. […] IL1R1/IL1β complex was preincubated in assay buffer (1% BSA in PBS, pH 7.5) for 20 min at room temperature. After 3× washes, plates were incubated with anti-His HRP detection antibody (Medna, Cat #D8212, […]) for 1 hour at room temperature. Following 5× washes, SuperPico chemiluminescent substrate was applied to wells and signal was read on Spectramax M5.

Where a chain is given by its changes, count along the chain named.

Our source for the binding result and IC50 values is patent US20240392013A1 (STELEXIS THERAPEUTICS, published 2024).

B1: STLX2012 (antibody, V domains shown)
VH: QVQLLQSGAEVKKPGSSVKVSCKASGGTFSIYAIDWVRQAPGQGLEWMGGIIPIFGTANSAQKFQGRVTITADKSTSTAYMELSSLRSEDTAVYYCARNGATSDAFDMWGQGTMVTVSS
VL: EIVLTQSPGTLSLSPGERATLSCRASLSVSSNYLAWFQQRPGQAPRLLIHGVSRRATGIPDRFSGSGSGTDFTLTISRLEPEDFAVYYCQQYGSSPLTFGGGTKVEIK
notes: Purified from hybridoma of immunized Alivamab mice; intact IgG; captured on anti-mouse IgG Fc sensors in Octet; kappa light chain; also called 74804_12A21B
For B1, the binding result in assay [1] is given as “no binding (tested: 100 nM)”. In addition, the 50% inhibitory concentration (IC50) in assay [2] came to 0.824 nM.

B2: STLX2043 (antibody, V domains shown)
VH: B1 VH with A58E, K63N, V68I, S77N, M108I, S118F
VL: B1 VL with H50Y
notes: Purified from hybridoma of immunized Alivamab mice; intact IgG; captured on anti-mouse IgG Fc sensors in Octet; kappa light chain; also called 74804_43F04A
With B2, the binding result in assay [1] is recorded as “no binding (tested: 100 nM)”. Besides, the half-maximal inhibitory concentration (IC50) in assay [2] stood at 0.804 nM.
